# From the supplement of paper PMC7125110
# ± gives the standard error. This sample holds only a part of the variants without activity.
# B1: glmS ribozyme (parent)
# chain: AUAAAAGCGCCAGAACUACAGAAAUGUAGUUGACGAGGAGGAGGUUUAUCGAAUUUUCGGCGGAUGCCUCCAAA
# Variants of: B1
# Experiment: self-cleavage kobs at 2500 uM GlcN6P; higher = faster cleavage; RNA array
# Details: with glucosamine-6-phosphate
# Summary of the method: (§1)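 Ribozyme variants carrying barcodes were transcribed in situ on sequenced MiSeq chips by E. coli RNA polymerase and tracked at 37 °C with a hybridised Cy3 probe. They were exposed to 40 μM to 10 mM glucosamine-6-phosphate in HEPES/KCl/Mg(OAc)2 buffer. kobs came from exponential decay fits of normalised per-tile medians, and kcat and KM from weighted Michaelis–Menten fits.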
row,Variant,self-cleavage kobs at 2500 uM GlcN6P [s⁻¹]
1,A12U G44U C67U,0.0167 ± 0.0049
2,A14C A15C A36U G37U U49A,< 1e-05
3,A15C A39G U47G A53U,0.000235 ± 8.5e-05
4,G29A G41A A48C C71G,< 1e-05
5,G29A C50G U55A,0.000211 ± 8.8e-05
6,A14G A52U A53G,0.000141 ± 3.3e-05
7,G13C A15G C58A,5.1e-05 ± 1.5e-05
8,A15U A33U G59U,< 1e-05
9,A14U G32U A53G,0.000242 ± 7.5e-05
10,A12U U31A C50G C61U,6.19e-05 ± 2.1e-05
11,A12U C34U G38A C50G,0.000122 ± 3e-05
12,A12U A39G U55C,0.0482 ± 0.021
13,A15U G41U A42G U57C C70A,7.37e-05 ± 2.1e-05
14,G13C G37U C58U G60A,< 1e-05
15,C16A U31A A39G U57C G60U,< 1e-05
16,C16A G29A C70A,6.39e-05 ± 2.4e-05
17,A14U G32U C71A,4.64e-05 ± 2e-05
18,A15U G44C A64G,< 1e-05
19,G29A G63C C68G,0.000233 ± 6.2e-05
20,A14U U45A C71G,0.000196 ± 5.4e-05
21,G13U A14G A36G U55A,< 1e-05

row,Variant,self-cleavage kobs at 2500 uM GlcN6P [s⁻¹]
1,C16G G32C G41U U69C,< 1e-05
2,A12G G40U U46A C58U,< 1e-05
3,A15G U45G U46C,0.00283 ± 0.001
4,A12G G32U A36U U49A C50G,< 1e-05
5,G29C A33U G38C U56A C71U,< 1e-05
6,C16G U30A G35U A36C A53U,< 1e-05
7,G13C U55A,6.85e-05 ± 1.6e-05
8,A14U C16G G38C G41C U47G,< 1e-05
9,A14C U31G A64C,6.13e-05 ± 2.2e-05
10,C16U G37U G41A,< 1e-05
11,A14G A39U C67A,0.0121 ± 0.003
12,A15U A42U G43C C61G U69A,< 1e-05
13,A12U G44C A53U,6.46e-05 ± 1.9e-05
14,A14C G60U C68U,< 1e-05
15,A15C G37A A39G,0.000365 ± 0.00012
16,A12U A14G U46A C50G,< 1e-05
17,A14U A15U C16U,5.74e-05 ± 2.3e-05
18,C16G G29C A53U,0.00684 ± 0.0022
19,A15U G32C A36C G40C,< 1e-05
20,G13A A33C A48C,< 1e-05
21,A15G U47G U57A C71G,5.79e-05 ± 2.3e-05

row,Variant,self-cleavage kobs at 2500 uM GlcN6P [s⁻¹]
1,A12G C34A U45A,< 1e-05
2,A15U G35U G38U U49G U54A,< 1e-05
3,C16G G29U A39U G51U C71U,< 1e-05
4,A15C U57A C67G,5.01e-05 ± 2.4e-05
5,A15G G32U C71G,8.85e-05 ± 2.5e-05
6,A14G U46C A48C C68U,8.06e-05 ± 3.1e-05
7,G13U G38U U54G G62A,< 1e-05
8,C16G G40C U45G,6.01e-05 ± 2.1e-05
9,A12G U46G C71A,5e-05 ± 2e-05
10,A14U G43C A53U G59C,< 1e-05
11,G13U G51C U57A C71A,< 1e-05
12,A14C A15G C16U,4.99e-05 ± 1.9e-05
13,G13C G38U U47A C70G,< 1e-05
14,G13U A39C U56G,3.76e-05 ± 1.4e-05
15,C16U G32A,0.00201 ± 0.00037
16,G21U U57C,9.36e-05 ± 1.4e-05
17,C16U U30C G32U G35U U47G,< 1e-05
18,A15G C50G,8.29e-05 ± 3.5e-05
19,A14C A33C U49A G66C,< 1e-05
20,C16G G37U G44U U47A G51C C68A,< 1e-05
21,A12G C34U C68A,< 1e-05

row,Variant,self-cleavage kobs at 2500 uM GlcN6P [s⁻¹]
1,C16A C50G C67A,0.00038 ± 0.00013
2,A15U C16U U45A,0.00158 ± 0.00051
3,G13U U47G C67U,8.34e-05 ± 2.2e-05
4,G13U U47G C67A,7.8e-05 ± 1.6e-05
5,A12U G13A G38U,< 1e-05
6,A14U U47G C68U,0.000197 ± 3.4e-05
7,A15U G37A G66C,7.17e-05 ± 1.8e-05
8,G13C C16G U69G,7.16e-05 ± 3.5e-05
9,C16A G32U G43U C61G,< 1e-05
10,A12G U31C U54C,3.97e-05 ± 1.2e-05
11,C16U G37A U46C U56G,0.000119 ± 2.7e-05
12,C16U A48G A53G,9.32e-05 ± 2.7e-05
13,A15C G51A C70G,6.1e-05 ± 2.9e-05
14,A14C G32U U47C C67G,< 1e-05
15,A15G U31A A53G,0.01 ± 0.0031
16,A14C U30G C58G,5.75e-05 ± 2.4e-05
17,A15C G66C,0.000277 ± 0.00013
18,C16A U31C C70A,< 1e-05
19,A18U,0.00664 ± 0.0014
20,A14U G32A G38U C50G C71G,0.000179 ± 3.5e-05

# Variants of: B1
# Experiment: self-cleavage kobs at 10000 uM GlcN6P; higher = faster cleavage; RNA array
# Details: with glucosamine-6-phosphate
# Summary of the method: as §1
row,Variant,self-cleavage kobs at 10000 uM GlcN6P [s⁻¹]
1,G13C A15G C58A,0.000154 ± 2.6e-05
2,A14U G32U C71A,7.15e-05 ± 2.1e-05
3,C16U G37U G41A,< 1e-05
4,A12G C34A U45A,< 1e-05
5,G13U U47G C67U,4.31e-05 ± 2e-05
